# Measured values as given in publication PMC9706586.
# Experiments:
# FcγRI = FcγRI (UniProt P12314); assay: SPR; Biacore T200; CM5 chip with immobilised anti-His antibody captures the His-tagged receptor or antigen; serial dilutions of antibody injected (120 s binding, 240 s dissociation, 30 µL/min); 20 °C; 1:1 binding kinetic model or steady-state affinity model
# CD20 (human) = CD20 (human) (UniProt P11836); assay: SPR; Biacore T200, CM5 chip with immobilised anti-His antibody, 20 °C; His-tagged receptor or antigen captured; serial dilutions of anti-CD20 X-body, IgG or IgA injected (120 s binding, 240 s dissociation, 30 µL/min); 1:1 binding kinetic model or steady-state affinity model
# Sequence of CD20 (human) (P11836 whole entry): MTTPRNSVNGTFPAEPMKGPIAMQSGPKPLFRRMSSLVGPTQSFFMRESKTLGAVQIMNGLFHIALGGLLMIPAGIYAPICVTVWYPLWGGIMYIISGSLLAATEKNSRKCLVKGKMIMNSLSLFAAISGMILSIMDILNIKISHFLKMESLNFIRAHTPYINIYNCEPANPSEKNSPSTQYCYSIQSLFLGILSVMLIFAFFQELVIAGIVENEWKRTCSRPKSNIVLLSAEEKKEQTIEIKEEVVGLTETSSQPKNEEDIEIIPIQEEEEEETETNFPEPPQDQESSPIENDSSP
# CD89 (human) = CD89 (human) (UniProt P24071); assay: SPR; Biacore T200; CM5 chip with immobilised anti-His antibody captures the His-tagged receptor or antigen; serial dilutions of antibody injected (120 s binding, 240 s dissociation, 30 µL/min); 20 °C; 1:1 binding kinetic model or steady-state affinity model
# Sequence of CD89 (human) (P24071 22-287): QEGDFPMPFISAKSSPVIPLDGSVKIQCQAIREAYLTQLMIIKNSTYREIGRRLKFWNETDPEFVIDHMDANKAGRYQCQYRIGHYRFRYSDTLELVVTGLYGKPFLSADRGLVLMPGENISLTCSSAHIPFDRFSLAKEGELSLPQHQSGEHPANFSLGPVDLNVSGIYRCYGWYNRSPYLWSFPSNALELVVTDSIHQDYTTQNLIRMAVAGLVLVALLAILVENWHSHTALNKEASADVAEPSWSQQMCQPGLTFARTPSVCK
# FcRn = FcRn (UniProt P55899); assay: SPR; Biacore T200, CM5 chip with immobilised anti-His antibody, 20 °C; His-tagged receptor or antigen captured; serial dilutions of anti-CD20 X-body, IgG or IgA injected (120 s binding, 240 s dissociation, 30 µL/min); 1:1 binding kinetic model or steady-state affinity model
# FcγRIIIa^F158 (human) = FcγRIIIa^F158 (human) (UniProt P08637); assay: as above
# Sequence of FcγRIIIa^F158 (human) (P08637 17-208): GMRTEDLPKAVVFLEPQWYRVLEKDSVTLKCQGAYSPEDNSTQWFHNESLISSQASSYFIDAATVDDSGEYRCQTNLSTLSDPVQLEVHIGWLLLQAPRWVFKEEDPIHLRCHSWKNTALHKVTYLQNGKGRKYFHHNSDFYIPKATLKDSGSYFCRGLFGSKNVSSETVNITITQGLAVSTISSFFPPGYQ
# FcγRIIIa^V158 (human) = assay: as above
# FcγRIIa^H131 (human) = FcγRIIa^H131 (human) (UniProt P12318); assay: as above
# Sequence of FcγRIIa^H131 (human) (P12318 34-217): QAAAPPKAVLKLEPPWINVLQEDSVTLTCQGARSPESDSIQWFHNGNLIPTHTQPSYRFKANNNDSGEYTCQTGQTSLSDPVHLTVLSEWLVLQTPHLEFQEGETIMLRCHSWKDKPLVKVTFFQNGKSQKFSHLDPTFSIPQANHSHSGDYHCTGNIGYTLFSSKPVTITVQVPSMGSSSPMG
# FcγRIIb (human) = FcγRIIb (human) (UniProt P31994); assay: as above
# Sequence of FcγRIIb (human) (P31994 43-217): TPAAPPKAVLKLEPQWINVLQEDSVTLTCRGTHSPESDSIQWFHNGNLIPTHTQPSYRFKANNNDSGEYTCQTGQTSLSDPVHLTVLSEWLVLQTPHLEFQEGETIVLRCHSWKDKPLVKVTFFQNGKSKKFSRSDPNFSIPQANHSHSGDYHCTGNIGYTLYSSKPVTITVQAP
# Sequence of FcγRI (P12314 16-374): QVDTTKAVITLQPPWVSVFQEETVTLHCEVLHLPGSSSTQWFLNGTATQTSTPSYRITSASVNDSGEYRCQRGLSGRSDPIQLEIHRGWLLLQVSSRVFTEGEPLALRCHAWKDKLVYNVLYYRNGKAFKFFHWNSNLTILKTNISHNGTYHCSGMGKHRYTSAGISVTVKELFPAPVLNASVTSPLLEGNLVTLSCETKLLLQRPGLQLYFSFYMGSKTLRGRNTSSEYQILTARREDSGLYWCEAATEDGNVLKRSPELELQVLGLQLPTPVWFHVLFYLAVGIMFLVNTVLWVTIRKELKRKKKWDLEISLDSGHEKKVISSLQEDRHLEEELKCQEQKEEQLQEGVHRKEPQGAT
substance,measurement,setting,value
trastuzumab IgG (antibody),Kd,FcγRI,113 nM
Rituximab IgA (antibody),Kd,CD20 (human),6.71 nM
trastuzumab IgA (antibody),Kd,CD89 (human),58.8 nM
same,Kd,FcγRI,272 nM
Rituximab IgG (antibody),Kd,CD20 (human),3.74 nM
same,Kd,FcRn,0.0391 nM
same,Kd,FcγRIIIa^F158 (human),0.0663 nM
same,Kd,FcγRIIIa^V158 (human),0.0603 nM
same,Kd,FcγRIIa^H131 (human),0.0548 nM
same,Kd,FcγRIIb (human),0.00277 nM
